Results on 2 molecules are retold here after patent US20170096490A1 (published 2017).

Test [1] addresses human RANK-L (Receptor Activator of Nuclear factor Kappa B Ligand), soluble (human) (UniProt O14788). The test is described as follows: cell-based or functional assay.
The target of test [2] is T1, human RANK-L (Receptor Activator of Nuclear factor Kappa B Ligand), soluble (human, UniProt O14788 140-317, limits assumed).
T1 construct: Used plain, biotinylated or ALEXA647-labeled; also called hRANK-L; sRANK-L
T1 sequence (looked up): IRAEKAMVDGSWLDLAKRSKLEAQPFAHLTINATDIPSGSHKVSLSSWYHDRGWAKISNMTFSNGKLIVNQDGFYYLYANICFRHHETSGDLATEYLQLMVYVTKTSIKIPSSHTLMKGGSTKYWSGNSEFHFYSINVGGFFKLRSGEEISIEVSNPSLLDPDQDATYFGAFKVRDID
Kind of test: AlphaScreen, biotinylated RANK-L vs RANK-huFc beads.

Test [3] deals with T1, human RANK-L (Receptor Activator of …). Kind of test: SPR BIACORE 3000, RANK-L on CM5 chip, 100 nM Nanobody.
Test [4] has the same target. The test is described as follows: SPR BIACORE 3000, RANK-L on CM5 chip, 100 nM Nanobody; indicative, one concentration.

Turning to “osteoprotegerin (from UniProt O00300 22-401) (receptor)”, the IC50, NF-kappaB reporter gene assay (luciferase, HEK293T, 300 ng/ml human RANK-L) in test [1] came out at 6.03 nM.

B1: RANKL18hum3 (VHH)
VHH: EVQLVESGGGLVQPGGSLRLSCAASGRTFSRSAMGWFRQAPGKGREFVGFITGSGGTTYYADSVKGRFTISRDNAQNPVYLQMNSLRPEDTAVYYCGVYRRTYISSTYSESSEYDYWGQGTLVTVSS
B1 came in with a half-maximal inhibitory concentration (IC50) in test [2] of 0.274 nM. The molecule further came in with a koff in test [3] of 0.000127 s⁻¹. In test [4], this molecule came in with a Kd of 0.288 nM and a kon of 441000 M⁻¹ s⁻¹.
